Source: US20230080534A1 (SHANGHAI BIOTROY BIOTECHNIQUE, published 2023)
Values belong to the binder of their own block, whether it stands above or below them. No end group written: not given here.

Assays:
[1] = target: T1, human CD27 (HA-tagged, expressed in HEK293 cells) (human, UniProt P26842 20-260, limits assumed); test: co-immunoprecipitation, HEK293 co-transfection
T1 construct: Plasmid printed as 'pcDNA3-HA-CD2'; not shown: HA tag
T1 sequence (looked up): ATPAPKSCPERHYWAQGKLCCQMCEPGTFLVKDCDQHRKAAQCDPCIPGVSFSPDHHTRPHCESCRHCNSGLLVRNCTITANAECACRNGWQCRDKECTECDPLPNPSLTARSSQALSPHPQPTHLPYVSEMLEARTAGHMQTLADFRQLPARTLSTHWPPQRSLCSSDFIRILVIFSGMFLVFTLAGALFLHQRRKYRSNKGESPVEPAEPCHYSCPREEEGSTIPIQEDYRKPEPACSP
Description: In co-immunoprecipitation experiment, cells were lysed in IP buffer (Thermo Scientific) and Roche complete protease inhibitor for 10 minutes, followed by the addition of benzonase (sigma) for 25 minutes at room temperature. The lysate was then centrifuged at 15,000 rpm at 4° C. to remove the precipitate. The supernatant was then incubated with primary antibody slowly rotated overnight at 4° C., followed by the addition of protein A or protein G dynabeads and incubated at 4° C. for 2 hours, washed for 4 times in PBST (PBS with 0.01% Tween 20), eluted with 50 mM DTT in SDS sample buffer for 10 minutes at 100° C., separated with SDS, and immunoblotted as previously described.
To further confirm which part of SEMG-2 binds to CD27, fragments of SEMG2 protein were designed. The amino acid sequence of full-length SEMG2 protein (SEQ ID NO:1) was divided into 6 segments of sequences, fused with GFP and named as SEMG2-P1, SEMG2-P2, SEMG2-P3, SEMG2-P4, SEMG2-P5 and SEMG2-P6 (See Table 1 for specific sequences, with corresponding abbreviation as P1-P6 respectively). Plasmids expressing these amino acid sequences were co-transfected with CD27 into HEK293 cells, and co-immunoprecipitation experiments were performed to identify the main fragment of SEMG2 that binds to CD27.

[2] = target: T2, human SEMG2 full-length protein (human, UniProt Q02383 24-582, limits assumed); test: ELISA on SEMG2; the EC50 table prints no unit, the axis is log (antibody concentration, nM)
T2 construct: also called SEMG2 protein; semenogelin 2
T2 sequence: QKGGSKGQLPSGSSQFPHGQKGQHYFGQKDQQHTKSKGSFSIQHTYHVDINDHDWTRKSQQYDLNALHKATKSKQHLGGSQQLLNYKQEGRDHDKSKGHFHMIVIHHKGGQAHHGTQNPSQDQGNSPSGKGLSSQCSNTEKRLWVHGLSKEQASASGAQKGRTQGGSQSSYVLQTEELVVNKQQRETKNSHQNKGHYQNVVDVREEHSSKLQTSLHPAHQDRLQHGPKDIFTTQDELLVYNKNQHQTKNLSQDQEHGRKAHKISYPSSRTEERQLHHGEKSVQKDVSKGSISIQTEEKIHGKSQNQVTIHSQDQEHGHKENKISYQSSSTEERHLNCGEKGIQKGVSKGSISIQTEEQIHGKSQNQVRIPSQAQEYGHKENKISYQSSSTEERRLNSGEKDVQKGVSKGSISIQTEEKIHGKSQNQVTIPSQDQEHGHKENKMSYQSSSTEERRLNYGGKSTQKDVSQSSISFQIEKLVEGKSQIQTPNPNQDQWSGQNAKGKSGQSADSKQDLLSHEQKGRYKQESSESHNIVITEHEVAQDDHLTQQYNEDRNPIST

[3] = target: T3, BSA-conjugated human SEMG2 (497-509) polypeptide (human, also: coupled to BSA, site not given here); test: ELISA on BSA-S2 (497-509); curve without upper plateau; the EC50 table prints no unit, the axis is log (antibody concentration, nM)
T3 peptide: QIEKLVEGKSQIQ

[4] = target: T3, BSA-conjugated human SEMG2 (497-509) …; test: ELISA (FIG. 21B-D)
[5] = target: T2, human SEMG2 full-length protein; test: ELISA (FIG. 21B-D)

- binding result [1]: no binding
B1: SEMG2-P1 fused with GFP (other)
chain: GSFSIQHTYHVDINDHDWTRKSQQYDLNALHKATKSKQHLGGSQQLLNYKQEGRDHDKSKGHFHMIVIHHKGGQAHHGT
notes: not shown: GFP fusion partner

- binding result [1]: no binding
Binder: EQKGRYKQESSESHNIVITEHEVAQDDHLTQQYNEDRNPIST (other, also: fused to GFP, variant, linker and side of fusion not given here, not shown: GFP fusion partner) [SEMG2-P6 fused with GFP]

- binding result [1]: no binding
B2: SEMG2-P4 fused with GFP (other)
chain: EYGHKENKISYQSSSTEERRLNSGEKDVQKGVSKGSISIQTEEKIHGKSQNQVTIPSQDQEHGHKENKMSYQSSSTEERRLNYGGKSTQKDVSQSSIS
notes: not shown: GFP fusion partner

- EC50 [2]: 0.313 nM
- EC50 [3]: 12.6 nM
- fold higher affinity than the parent antibody (H88-67) [4]: > 10 fold
- fold higher affinity than the parent antibody (H88-67) [5]: > 10 fold
B3: 67-3-67-6 (antibody, V domains shown)
VH: QVQLLESGGGVVQPGRSLRLSCAASGFTFSSYAMHWVRQASGKGLEWVAVISYDGSNKYYADSVKGRFTISRDNSKNTLYLQMNSLRAEDTAVYYCARMDNHGSPDYWGQGTLVTVSS
VL: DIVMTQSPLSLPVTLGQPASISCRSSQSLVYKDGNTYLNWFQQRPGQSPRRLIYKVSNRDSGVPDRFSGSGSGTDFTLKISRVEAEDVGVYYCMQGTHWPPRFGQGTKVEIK
